Patent publication US20120107364A1 (ACTGEN, published 2012)

Columns and labels:
Assay in all cases: flow cytometry on Ba/F3 cells expressing the truncated PODXL2
[1] = molecular target: T1, PODXL2, positions 1 to 360 (human, UniProt O00592 23-392)
T1 construct: One of the 14 C-terminal truncations; Expressed on Ba/F3 cells; also called R360
T1 sequence: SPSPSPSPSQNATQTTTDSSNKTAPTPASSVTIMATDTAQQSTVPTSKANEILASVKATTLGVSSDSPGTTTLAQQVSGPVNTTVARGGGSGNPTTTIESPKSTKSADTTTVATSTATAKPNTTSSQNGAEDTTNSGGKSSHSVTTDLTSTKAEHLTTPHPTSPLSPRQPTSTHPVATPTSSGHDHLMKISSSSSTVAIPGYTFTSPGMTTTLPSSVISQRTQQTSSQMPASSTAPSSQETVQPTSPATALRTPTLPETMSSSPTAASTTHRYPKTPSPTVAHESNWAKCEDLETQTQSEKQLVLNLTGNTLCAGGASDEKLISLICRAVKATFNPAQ
Method: (§1) To each sample of the cell suspension, 50 μl of the hybridoma culture supernatant or 2-μg/ml of the purified antibody (hereinafter, referred to as an “antibody solution”) was added, and the antibody was reacted with the cells. As an isotype control of the antibody solution, a wash buffer containing 2 μg/ml of each of mouse IgG1 (BioLegend, 400412), mouse IgG2a (BioLegend, 400224), and mouse IgG2b (BioLegend, 400324) was used. The hybridoma culture supernatant was reacted with the target cells at room temperature for 30 minutes, followed by centrifugation at 700×g for 2 minutes. Then, a culture supernatant was removed. Further, 100 μl of a wash buffer was added, followed by centrifugation at 700×g for 2 minutes again. A supernatant was removed. Then, the cells were washed.
(§2) Next, to the cell pellets after the washing, 50 μl of Goat anti-mouse IgG, F(ab′) 2-PE (PE=phycoerythrin, Beckman Coulter, IM0855) diluted 200-fold with a wash buffer was added as a secondary antibody for detection, and reacted in the dark at room temperature for 30 minutes. The reaction was followed by centrifugation at 700×g for 2 minutes. A supernatant was removed. Further, 100 μl of a wash buffer was added, followed by centrifugation at 700×g for 2 minutes again. A supernatant was removed. Then, the cells were washed. Thereafter, the cells were suspended in an appropriate amount of a wash buffer. The reactivity between the antibody and the cells was analyzed by a flow cytometer (Beckman Coulter, FC500 MPL).
(§3) Thereafter, by the same method as in Example 1 (4) (the virus packaging and thereafter), Ba/F3 cells containing the PODXL2 gene sequences of various chain lengths were prepared. Further, by the same method as in Example 4, the reactivity between the ACT36-27_{—}5D1 antibody and the Ba/F3 cells expressing the PODXL2 molecules of various chain lengths was analyzed by a flow cytometer (FIG. 10).

[2] = molecular target: T2, PODXL2, positions 1 to 350 (human, UniProt O00592 23-382)
T2 construct: One of the 14 C-terminal truncations; Expressed on Ba/F3 cells; also called R350
T2 sequence: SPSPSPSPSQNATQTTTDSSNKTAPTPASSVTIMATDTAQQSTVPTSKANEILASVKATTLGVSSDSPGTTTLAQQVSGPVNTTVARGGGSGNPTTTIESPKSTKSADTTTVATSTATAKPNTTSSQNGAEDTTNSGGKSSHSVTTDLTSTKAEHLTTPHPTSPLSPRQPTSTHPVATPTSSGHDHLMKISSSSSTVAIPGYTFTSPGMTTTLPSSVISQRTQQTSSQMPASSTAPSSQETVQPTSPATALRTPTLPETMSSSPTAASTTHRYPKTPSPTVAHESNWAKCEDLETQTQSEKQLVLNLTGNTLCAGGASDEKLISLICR
Method: as §1, §2, §3

[3] = molecular target: T3, PODXL2, positions 1 to 320 (human, UniProt O00592 23-352)
T3 construct: One of the 14 C-terminal truncations; Expressed on Ba/F3 cells; also called R320
T3 sequence: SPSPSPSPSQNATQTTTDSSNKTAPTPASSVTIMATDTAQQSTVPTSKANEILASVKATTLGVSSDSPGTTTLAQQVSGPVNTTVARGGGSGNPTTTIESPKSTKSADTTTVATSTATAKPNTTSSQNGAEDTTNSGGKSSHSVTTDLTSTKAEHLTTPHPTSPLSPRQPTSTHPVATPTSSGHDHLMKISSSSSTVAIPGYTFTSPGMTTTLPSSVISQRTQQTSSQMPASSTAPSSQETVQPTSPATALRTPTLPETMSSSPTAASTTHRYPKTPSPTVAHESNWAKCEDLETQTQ
Method: as §1, §2, §3

[4] = molecular target: T4, PODXL2, positions 1 to 400 (human, UniProt O00592 23-432)
T4 construct: Encoded as positions 1-400 in pMX-SST and expressed on Ba/F3 cells; The vector-encoded part is not described; also called R400
T4 sequence: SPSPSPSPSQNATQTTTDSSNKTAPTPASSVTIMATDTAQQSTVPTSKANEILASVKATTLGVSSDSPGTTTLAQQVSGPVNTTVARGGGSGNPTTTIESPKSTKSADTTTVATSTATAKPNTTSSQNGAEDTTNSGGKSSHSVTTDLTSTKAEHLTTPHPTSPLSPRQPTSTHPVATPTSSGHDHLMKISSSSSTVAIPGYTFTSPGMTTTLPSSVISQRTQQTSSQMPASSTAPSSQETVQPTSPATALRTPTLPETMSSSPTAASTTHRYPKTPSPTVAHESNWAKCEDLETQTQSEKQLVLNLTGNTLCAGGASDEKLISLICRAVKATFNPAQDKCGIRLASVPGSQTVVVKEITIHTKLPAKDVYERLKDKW
Method: as §1, §2, §3

[5] = molecular target: T5, PODXL2, positions 1 to 380 (human, UniProt O00592 23-412)
T5 construct: One of the 14 C-terminal truncations; Expressed on Ba/F3 cells; also called R380
T5 sequence: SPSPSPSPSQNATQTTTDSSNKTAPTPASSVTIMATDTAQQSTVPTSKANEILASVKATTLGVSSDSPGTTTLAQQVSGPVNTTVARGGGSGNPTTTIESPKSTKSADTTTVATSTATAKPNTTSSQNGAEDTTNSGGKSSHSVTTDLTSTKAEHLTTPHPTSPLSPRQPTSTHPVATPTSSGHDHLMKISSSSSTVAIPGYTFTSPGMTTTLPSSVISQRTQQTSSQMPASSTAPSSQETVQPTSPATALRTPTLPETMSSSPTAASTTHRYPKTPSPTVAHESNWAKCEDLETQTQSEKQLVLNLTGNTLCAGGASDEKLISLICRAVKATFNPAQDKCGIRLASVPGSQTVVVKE
Method: as §1, §2, §3

binding result [1]: no binding
binding result [2]: no binding
binding result [3]: no binding
binding result [4]: no binding
binding result [5]: no binding
B1: ACT36-27-5D1 antibody (antibody, V domains shown)
VH: EVQLQQSGPELVKPGASVKMSCKASGYTFTSYVMHWVKQKPGQGLEWIGYIHPYNDGIKYNEKFKGKATLTSDKSSSTAYMDLSSLTSEDSAVYYCARSWDWYFDVWAAGTTVTVSS
VL: QIVLTQSPAIMSASPGEKVSMTCSASSSVSYMHWYQQKSGTSPKRWIYDTSKLASGVPARFSGSGSGTSYSLTISSMEAEDAATYYCLQWSSNPPTFGGGTKLE
notes: also called anti-PODXL2 antibody ACT36-27-5D1; anti-ACT36-27-5D1 monoclonal antibody
